Experimental data reported in patent publication US7125658B2, “Small protein that interacts with a ribonucleotide reductase subunit and uses thereof” (The Trustees of Columbia University in the City of New York, priority 1998, dated 2006).

Molecular target: T1, yeast Rnr1p (Saccharomyces cerevisiae, UniProt P21524)
T1 construct: made in house; host or cells: E. coli BL21 (DE3), pET3a
T1 sequence (P21524 1-888): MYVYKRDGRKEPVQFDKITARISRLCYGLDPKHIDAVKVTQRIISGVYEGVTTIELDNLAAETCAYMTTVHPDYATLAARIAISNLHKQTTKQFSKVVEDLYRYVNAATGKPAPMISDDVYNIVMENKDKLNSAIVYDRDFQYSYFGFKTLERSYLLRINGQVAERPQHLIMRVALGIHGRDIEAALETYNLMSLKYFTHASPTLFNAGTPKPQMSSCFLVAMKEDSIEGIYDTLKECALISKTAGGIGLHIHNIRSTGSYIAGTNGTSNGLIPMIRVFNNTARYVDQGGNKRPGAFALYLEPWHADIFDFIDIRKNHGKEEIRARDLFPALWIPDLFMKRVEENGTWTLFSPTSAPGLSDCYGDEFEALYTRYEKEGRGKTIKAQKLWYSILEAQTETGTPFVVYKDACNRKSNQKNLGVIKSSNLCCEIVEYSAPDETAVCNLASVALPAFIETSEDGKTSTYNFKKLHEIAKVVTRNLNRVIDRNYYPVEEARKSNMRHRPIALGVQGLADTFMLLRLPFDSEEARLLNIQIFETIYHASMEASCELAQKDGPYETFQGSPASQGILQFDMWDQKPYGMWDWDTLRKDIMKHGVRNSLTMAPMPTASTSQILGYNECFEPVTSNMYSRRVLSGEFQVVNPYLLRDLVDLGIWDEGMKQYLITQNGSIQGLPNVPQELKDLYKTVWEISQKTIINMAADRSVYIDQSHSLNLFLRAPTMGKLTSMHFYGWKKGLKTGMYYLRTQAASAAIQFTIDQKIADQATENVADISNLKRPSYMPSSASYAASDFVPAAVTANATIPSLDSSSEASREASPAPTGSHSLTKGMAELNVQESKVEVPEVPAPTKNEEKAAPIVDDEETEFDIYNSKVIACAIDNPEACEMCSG
Assay: BIAcore biosensor analysis, immobilized Sml1p and yeast Rnr1p
Type: binding
Method: BIAcore biosensor analysis. The interaction between Sml1p and either yeast Rnr1p or mouse R1 protein was studied by biosensor analysis using the BIAcore method (Biacore AB). The Sml1 protein was prepared in 10 mM sodium acetate, pH 5.2, at a concentration of 0.44 mg/ml; it was then immobilized on the dextran layer of the sensor chip as described previously for the mouse R2 protein (17). The ligand proteins were equilibrated with running buffer (10 mM Hepes-KOH, pH 7.4, 200 mM potassium acetate, 1 mM EDTA, 5 mM magnesium acetate and 0.05% Surfactant P20 (BIAcore). The interactions were studied at a constant temperature of 22° C. and a constant flow of 5 μl/min. Kinetics for the interaction of Sml1p with yeast Rnr1p was determined by allowing the immobilized Sml1p to interact with increasing concentrations of Rnr1p (18). The resonance unit (RU) is proportional to the mass, and 1 RU corresponds to a surface concentration of 1 pg of protein/mm^2 of the 100 nm thick dextran layer (19).
Kinetic studies of the interaction between the Rnr1 and Sml1 proteins using a biosensor technique. To obtain a quantitative description of the Rnr1p and Sml1p interaction, we immobilized the Sml1 protein to the dextran layer of a sensor chip, and then injected a series of solutions containing increasing concentrations of Rnr1p to the same sensor chip. The immobilization of Sml1p at a concentration of 0.44 mg/ml gave an increase of 91 resonance units (RU), which correspond to 91 pg/mm^2. With a surface of 0.8 mm 2, 91 RU corresponds to a total of 72.8 pg of bound Sml1p, which can be compared with the total injected amount of 15.4 μg. This low degree of attachment (only 0.0005%) makes it unlikely that the protein is attached to multiple binding sites.
In control experiments, where the same series of Rnr1p solutions passed a sensor chip without immobilized Sml1p, a “bulk effect” gave a response of only about 60 RU. The same background value of about 60 RU was observed when bovine serum albumin or Rnr2p/Rnr4p heterodimer was injected at a concentration of 0.1 mg/ml (data not shown). In FIG. 1B, the response at equilibrium is plotted against the concentration of injected Rnr1p. […] These values correspond to 691 pg/mm^2 or a total of 553 pg or 5.5 fmol Rnr1p monomer bound to about 6.2 fmol immobilized Sml1p, i.e. nearly one Rnr1p monomer bound per molecule of immobilized Sml1p. […] Calculating the equilibrium dissociation constant from these rate constants gave a K0 of about 0.25 μM, which is close to the directly determined K0.

[1] = BIAevaluation software, lower curves of FIG. 12A

B1: Sml1p: 104 amino acid yeast protein encoded by YML058w (SML1) that binds Rnr1 and inhibits ribonucleotide reductase; recombinant, expressed in E. coli (protein)
chain: MQNSQDYFYAQNRCQQQQAPSTLRTVTMAEFRRVPLPPMAEVPMLSTQNSMGSSASASASSLEMWEKDLEERLNSIDHDMNNNKFGSGELKSMFNQGKVEEMDF
[1]
  association rate constant: about 153000 M^1s^−1
  dissociation rate constant: 0.04 s⁻¹
Rnr1p bound to immobilized Sml1p (91 RU)
  maximal binding: 691 RU
Immobilized Sml1p, mobile phase Rnr1p, 22° C., response at equilibrium fitted to one site binding model, read-out: equilibrium dissociation constant (KD)
  Kd: 400 nM
